Usually stoichiometry N stands for a count of units in the complex or per binding partner.

This note sets out measurements from publication PMC9600955.

The assay deals with LapD2 purified in isolation (Streptococcus intermedius GC1825). The assay can be described thus: crystal structure; LapD2 at 10 mg/mL, hanging drop, 0.2 M lithium sulfate, 0.1 M Tris-HCl pH 8.0, 30% PEG 4000; SAD phasing, native data to 2.20 Å.

“LapD2 purified in isolation (natural protein)” gave a stoichiometry N of 2.
